Test results from US20200016315A1 (SYDDANSK UNIVERSITET, published 2020).

Key:
hemoglobin [1] = biological target: T1, hemoglobin (human, UniProt P69905 2-142; P68871 2-147); assay: raw plasma without added hemoglobin mixed with equal volume of protein-Sepharose, supernatant on Cobas 6000; not corrected for dilution; no Sepharose 7, sham Sepharose 0
T1 construct: also called Hb; human Hb

hemoglobin [2] = biological target: T1, hemoglobin; assay: plasma with 3 g/l added hemoglobin mixed with equal volume of protein-Sepharose, supernatant on Cobas 6000; not corrected for dilution; no Sepharose 80, sham Sepharose 25

B1: IsdH^N1 (residues 86-229) with N-terminal His6 tag and thrombin cleavage site (receptor)
chain: DIGPREQVNFQLLDKNNETQYYHFFSIKDPADVYYTKKKAEVELDINTASTWKKFEVYENNQKLPVRLVSYSPVPEDHAYIRFPVSDGTQELKIVSSTQIDDGEETNYDYTKLVFAKPIYNDPSL
modifications: coupled through primary amines to CNBr-activated Sepharose
notes: also called N1 Seph; not shown: added N-terminal His6 tag and thrombin cleavage site
For B1, the “H-index of supernatant (hemoglobin left after removal)” value (“H-index of supernatant” for short) (hemoglobin [1]) was 0 mg/dL and the “H-index of supernatant” value (hemoglobin [2]) was 29 mg/dL.

B2: IsdH N1N2N3 (residues 82-655), wild type (receptor)
chain: NYPAADESLKDAIKDPALENKEHDIGPREQVNFQLLDKNNETQYYHFFSIKDPADVYYTKKKAEVELDINTASTWKKFEVYENNQKLPVRLVSYSPVPEDHAYIRFPVSDGTQELKIVSSTQIDDGEETNYDYTKLVFAKPIYNDPSLVKSDTNDAVVTNDQSSSVASNQTNTNTSNQNISTINNANNQPQATTNMSQPAQPKSSTNADQASSQPAHETNSNGNTNDKTNESSNQSDVNQQYPPADESLQDAIKNPAIIDKEHTADNWRPIDFQMKNDKGERQFYHYASTVEPATVIFTKTGPIIELGLKTASTWKKFEVYEGDKKLPVELVSYDSDKDYAYIRFPVSNGTREVKIVSSIEYGENIHEDYDYTLMVFAQPITNNPDDYVDEETYNLQKLLAPYHKAKTLERQVYELEKLQEKLPEKYKAEYKKKLDQTRVELADQVKSAVTEFENVTPTNDQLTDLQEAHFVVFESEENSESVMDGFVEHPFYTATLNGQKYVVMKTKDDSYWKDLIVEGKRVTTVSKDPKNNSRTLIFPYIPDKAVYNAIVKVVVANIGYEGQYHVRIINQDI
modifications: coupled through primary amines to CNBr-activated Sepharose
notes: In the assay the protein was immobilized on Sepharose; also called IsdH N1N2N3 wt; N1N2N3-Seph; not shown: vector-encoded His6 tag of pET-15b
With B2 the “H-index of supernatant” value (hemoglobin [1]) was 0 mg/dL and the “H-index of supernatant” value (hemoglobin [2]) was 12 mg/dL.

B3: IsdH N1N2N3 Y642A (receptor)
chain: NYPAADESLKDAIKDPALENKEHDIGPREQVNFQLLDKNNETQYYHFFSIKDPADVYYTKKKAEVELDINTASTWKKFEVYENNQKLPVRLVSYSPVPEDHAYIRFPVSDGTQELKIVSSTQIDDGEETNYDYTKLVFAKPIYNDPSLVKSDTNDAVVTNDQSSSVASNQTNTNTSNQNISTINNANNQPQATTNMSQPAQPKSSTNADQASSQPAHETNSNGNTNDKTNESSNQSDVNQQYPPADESLQDAIKNPAIIDKEHTADNWRPIDFQMKNDKGERQFYHYASTVEPATVIFTKTGPIIELGLKTASTWKKFEVYEGDKKLPVELVSYDSDKDYAYIRFPVSNGTREVKIVSSIEYGENIHEDYDYTLMVFAQPITNNPDDYVDEETYNLQKLLAPYHKAKTLERQVYELEKLQEKLPEKYKAEYKKKLDQTRVELADQVKSAVTEFENVTPTNDQLTDLQEAHFVVFESEENSESVMDGFVEHPFYTATLNGQKYVVMKTKDDSYWKDLIVEGKRVTTVSKDPKNNSRTLIFPYIPDKAVYNAIVKVVVANIGAEGQYHVRIINQDI
modifications: coupled through primary amines to CNBr-activated Sepharose
notes: also called N1N2N3-Y642A-Seph; Y642A mutant; not shown: vector-encoded His6 tag of pET-15b
With B3 the “H-index of supernatant” value (hemoglobin [1]) was 0 mg/dL and the “H-index of supernatant” value (hemoglobin [2]) was 8 mg/dL.
